We go through one substance from patent publication US20170291954A1.

This assay deals with mesothelin on K562.meso cells (erythroblast cell line stably expressing mesothelin). In words: cell-based or functional assay.

Turning to “SS1 chimeric antigen receptor (mesothelin specific) on transduced T cells”, the CAR-T cell cytolysis at an Effector:target cell ratio of 10:1 (Cr51 release), K562meso is 95%.
